# Data taken from patent US20240261333A1, “NOVEL TARGETS FOR ENHANCING ANTI-TUMOR IMMUNITY” (THE BROAD INSTITUTE, INC., priority 2021, published 2024).
# Legend:
# PRR4 = PRR4 (UniProt Q16378); test: co-IP, anti-FLAG, lysate of N-FLAG B3GNT2 cells, mass spectrometry
# RAB1B = RAB1B (UniProt Q9H0U4); test: as above
# DPM1 = DPM1 (UniProt O60762); test: as above
# SLC25A3 = SLC25A3 (UniProt Q00325); test: as above
# PSMA1 = PSMA1 (UniProt P25786); test: as above
# TRIM28 = TRIM28 (UniProt Q13263); test: as above
# SLC25A1 = SLC25A1 (UniProt P53007); test: as above
# PSMA4 = PSMA4 (UniProt P25789); test: as above
# SMN1 = SMN1 (UniProt Q16637); test: as above
# CNP = CNP (UniProt P09543); test: as above
# RPL29 = RPL29 (UniProt P47914); test: as above
# HSPH1 = HSPH1 (UniProt Q92598); test: as above
# CSPG4 = CSPG4 (UniProt Q6UVK1); test: as above
# SEC16A = SEC16A (UniProt O15027); test: as above
# HSPA5 = HSPA5 (UniProt P11021); test: as above
# ALDOA = ALDOA (UniProt P04075); test: as above
# RPL18A = RPL18A (UniProt Q02543); test: as above
# SERPINE2 = SERPINE2 (UniProt P07093); test: as above
# LRPPRC = LRPPRC (UniProt P42704); test: as above
# OS9 = OS9 (UniProt Q13438); test: as above
# SRSF7 = SRSF7 (UniProt Q16629); test: as above
# CALM2 = CALM2 (UniProt P0DP24); test: as above
# ARG1 = ARG1 (UniProt P05089); test: co-IP, IgG control, N-FLAG B3GNT2 cell lysate, mass spectrometry
# RPL19 = RPL19 (UniProt P84098); test: as above
# SRSF3 = SRSF3 (UniProt P84103); test: as above
# HSPB1 = HSPB1 (UniProt P04792); test: as above
# HNRNPU = HNRNPU (UniProt Q00839); test: as above
# ITGB3 = ITGB3 (UniProt P05106); test: as above
# RPS13 = RPS13 (UniProt P62277); test: as above
# RPS8 = RPS8 (UniProt P62241); test: as above
# TXN = TXN (UniProt P10599); test: as above
# PSMA7 = PSMA7 (UniProt O14818); test: as above
# LIMA1 = LIMA1 (UniProt Q9UHB6); test: as above
# RPL3 = RPL3 (UniProt P39023); test: as above
# NCCRP1 = NCCRP1 (UniProt Q6ZVX7); test: as above
# MTCH2 = MTCH2 (UniProt Q9Y6C9); test: as above
# DDX20 = DDX20 (UniProt Q9UHI6); test: as above
# TMEM59 = TMEM59 (UniProt Q9BXS4); test: as above
# SSRP1 = SSRP1 (UniProt Q08945); test: as above
# RPL22 = RPL22 (UniProt P35268); test: as above
# SRSF3, sequence (P84103 whole entry): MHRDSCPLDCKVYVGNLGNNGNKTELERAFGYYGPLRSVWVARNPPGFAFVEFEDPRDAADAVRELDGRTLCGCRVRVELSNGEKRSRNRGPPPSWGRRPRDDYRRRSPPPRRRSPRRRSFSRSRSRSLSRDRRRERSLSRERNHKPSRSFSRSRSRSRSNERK
# HSPB1, sequence (P04792 whole entry): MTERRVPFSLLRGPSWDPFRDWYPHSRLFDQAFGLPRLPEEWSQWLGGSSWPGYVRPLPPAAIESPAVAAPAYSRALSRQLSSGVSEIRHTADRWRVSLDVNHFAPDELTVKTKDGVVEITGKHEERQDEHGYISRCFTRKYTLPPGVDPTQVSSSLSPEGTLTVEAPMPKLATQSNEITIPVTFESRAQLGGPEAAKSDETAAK
# PRR4, sequence (Q16378 17-134 limits assumed): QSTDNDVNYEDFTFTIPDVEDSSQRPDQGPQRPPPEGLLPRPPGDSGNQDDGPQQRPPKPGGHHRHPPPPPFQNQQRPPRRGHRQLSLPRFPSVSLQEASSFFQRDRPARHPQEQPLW
# HSPH1, sequence (Q92598 other isoform, or with tags, fused parts or gaps limits assumed): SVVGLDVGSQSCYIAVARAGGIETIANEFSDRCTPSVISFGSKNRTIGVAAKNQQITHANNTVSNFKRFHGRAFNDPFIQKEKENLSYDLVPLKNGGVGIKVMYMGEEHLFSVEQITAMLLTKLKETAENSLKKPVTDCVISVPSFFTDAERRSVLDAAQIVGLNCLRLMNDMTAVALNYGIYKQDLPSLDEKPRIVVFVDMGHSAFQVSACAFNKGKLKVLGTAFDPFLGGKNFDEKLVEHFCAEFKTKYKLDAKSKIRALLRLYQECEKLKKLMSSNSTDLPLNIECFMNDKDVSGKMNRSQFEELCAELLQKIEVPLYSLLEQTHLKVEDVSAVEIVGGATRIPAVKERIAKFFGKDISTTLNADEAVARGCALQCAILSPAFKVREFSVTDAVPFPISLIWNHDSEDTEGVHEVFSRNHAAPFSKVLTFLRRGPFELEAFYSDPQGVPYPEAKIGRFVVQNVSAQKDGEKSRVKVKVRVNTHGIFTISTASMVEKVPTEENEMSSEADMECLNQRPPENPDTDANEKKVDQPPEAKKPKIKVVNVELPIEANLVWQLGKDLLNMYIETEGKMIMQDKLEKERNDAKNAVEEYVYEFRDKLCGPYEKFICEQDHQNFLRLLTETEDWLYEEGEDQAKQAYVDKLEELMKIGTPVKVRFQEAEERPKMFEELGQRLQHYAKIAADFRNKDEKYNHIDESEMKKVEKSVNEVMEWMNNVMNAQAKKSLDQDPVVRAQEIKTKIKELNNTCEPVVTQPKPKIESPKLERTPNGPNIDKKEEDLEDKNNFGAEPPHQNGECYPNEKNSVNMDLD
# OS9, sequence (Q13438 other isoform, or with tags, fused parts or gaps limits assumed): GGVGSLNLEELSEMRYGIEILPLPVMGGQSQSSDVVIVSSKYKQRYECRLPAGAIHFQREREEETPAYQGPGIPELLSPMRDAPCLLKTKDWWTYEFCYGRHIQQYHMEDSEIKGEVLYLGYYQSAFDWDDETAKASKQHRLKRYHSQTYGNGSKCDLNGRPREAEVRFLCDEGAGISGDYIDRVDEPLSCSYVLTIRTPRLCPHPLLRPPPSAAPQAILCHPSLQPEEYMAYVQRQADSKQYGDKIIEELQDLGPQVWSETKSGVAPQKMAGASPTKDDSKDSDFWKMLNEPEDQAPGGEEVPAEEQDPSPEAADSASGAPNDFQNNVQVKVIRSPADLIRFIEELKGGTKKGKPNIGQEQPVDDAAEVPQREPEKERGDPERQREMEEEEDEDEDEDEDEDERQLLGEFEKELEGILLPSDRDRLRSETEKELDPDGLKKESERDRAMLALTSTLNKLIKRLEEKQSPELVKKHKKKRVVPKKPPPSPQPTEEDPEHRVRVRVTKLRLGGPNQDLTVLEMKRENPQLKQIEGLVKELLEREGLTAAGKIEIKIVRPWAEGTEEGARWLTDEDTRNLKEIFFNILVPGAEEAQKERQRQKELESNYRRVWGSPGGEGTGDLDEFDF
# SSRP1, sequence (Q08945 2-709 limits assumed): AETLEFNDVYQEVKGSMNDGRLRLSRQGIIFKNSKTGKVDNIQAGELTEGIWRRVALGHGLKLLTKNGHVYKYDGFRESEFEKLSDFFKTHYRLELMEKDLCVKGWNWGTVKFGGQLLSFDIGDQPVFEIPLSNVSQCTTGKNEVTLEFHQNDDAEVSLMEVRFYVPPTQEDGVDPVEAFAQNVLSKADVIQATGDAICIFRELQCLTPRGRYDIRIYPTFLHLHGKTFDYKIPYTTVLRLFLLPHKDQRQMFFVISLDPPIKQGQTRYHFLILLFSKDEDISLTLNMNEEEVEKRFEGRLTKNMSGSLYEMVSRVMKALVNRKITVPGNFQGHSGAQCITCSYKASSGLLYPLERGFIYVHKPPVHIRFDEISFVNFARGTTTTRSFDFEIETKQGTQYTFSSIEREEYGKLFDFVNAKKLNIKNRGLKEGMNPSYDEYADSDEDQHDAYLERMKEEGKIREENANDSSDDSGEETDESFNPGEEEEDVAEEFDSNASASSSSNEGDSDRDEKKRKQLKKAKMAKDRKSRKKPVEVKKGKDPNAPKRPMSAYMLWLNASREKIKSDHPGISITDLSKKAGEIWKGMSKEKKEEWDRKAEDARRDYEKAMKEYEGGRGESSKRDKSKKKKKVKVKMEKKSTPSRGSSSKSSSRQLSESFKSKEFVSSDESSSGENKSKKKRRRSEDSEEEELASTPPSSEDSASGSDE
# SLC25A3, sequence (Q00325 50-362 limits assumed): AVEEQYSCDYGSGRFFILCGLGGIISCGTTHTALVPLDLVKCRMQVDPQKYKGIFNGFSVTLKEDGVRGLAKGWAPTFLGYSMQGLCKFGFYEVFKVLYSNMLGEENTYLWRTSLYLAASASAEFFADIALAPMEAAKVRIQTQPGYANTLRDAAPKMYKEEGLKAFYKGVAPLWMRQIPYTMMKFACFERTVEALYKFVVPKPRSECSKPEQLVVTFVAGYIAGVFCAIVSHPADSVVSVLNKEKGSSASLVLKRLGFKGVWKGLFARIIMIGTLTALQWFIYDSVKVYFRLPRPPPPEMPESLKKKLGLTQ
# PSMA7, sequence (O14818 whole entry): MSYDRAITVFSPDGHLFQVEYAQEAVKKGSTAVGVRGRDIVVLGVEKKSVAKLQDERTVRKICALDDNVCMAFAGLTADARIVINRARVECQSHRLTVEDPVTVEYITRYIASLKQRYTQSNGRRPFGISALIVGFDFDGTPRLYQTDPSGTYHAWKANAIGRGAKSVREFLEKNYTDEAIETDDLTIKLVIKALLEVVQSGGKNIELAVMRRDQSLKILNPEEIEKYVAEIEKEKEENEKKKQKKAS
# NCCRP1, sequence (Q6ZVX7 whole entry): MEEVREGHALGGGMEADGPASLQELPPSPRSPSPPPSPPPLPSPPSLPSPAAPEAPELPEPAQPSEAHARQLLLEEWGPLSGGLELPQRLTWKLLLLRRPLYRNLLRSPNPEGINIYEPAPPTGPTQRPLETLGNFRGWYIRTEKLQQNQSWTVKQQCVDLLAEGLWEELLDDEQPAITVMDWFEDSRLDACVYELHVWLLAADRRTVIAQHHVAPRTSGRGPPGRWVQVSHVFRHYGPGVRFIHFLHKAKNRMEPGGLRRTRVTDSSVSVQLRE
# HSPA5, sequence (P11021 19-654 limits assumed): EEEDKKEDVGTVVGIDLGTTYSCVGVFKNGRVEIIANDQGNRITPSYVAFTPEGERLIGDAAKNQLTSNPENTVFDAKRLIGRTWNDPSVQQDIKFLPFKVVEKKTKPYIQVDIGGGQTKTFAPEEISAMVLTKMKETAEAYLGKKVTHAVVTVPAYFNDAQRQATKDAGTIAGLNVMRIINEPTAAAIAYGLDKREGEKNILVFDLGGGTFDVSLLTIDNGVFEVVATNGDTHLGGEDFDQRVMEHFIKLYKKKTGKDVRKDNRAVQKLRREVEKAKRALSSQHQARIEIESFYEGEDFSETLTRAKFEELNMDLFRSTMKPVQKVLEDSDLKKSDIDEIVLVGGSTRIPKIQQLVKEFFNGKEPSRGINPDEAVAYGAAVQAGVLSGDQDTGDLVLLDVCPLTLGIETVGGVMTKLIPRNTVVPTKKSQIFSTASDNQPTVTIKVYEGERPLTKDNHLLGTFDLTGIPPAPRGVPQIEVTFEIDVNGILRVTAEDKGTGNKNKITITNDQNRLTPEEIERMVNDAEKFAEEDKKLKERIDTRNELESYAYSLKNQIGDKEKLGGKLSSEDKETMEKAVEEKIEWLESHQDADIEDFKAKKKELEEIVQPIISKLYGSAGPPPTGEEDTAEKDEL
# ALDOA, sequence (P04075 other isoform, or with tags, fused parts or gaps limits assumed): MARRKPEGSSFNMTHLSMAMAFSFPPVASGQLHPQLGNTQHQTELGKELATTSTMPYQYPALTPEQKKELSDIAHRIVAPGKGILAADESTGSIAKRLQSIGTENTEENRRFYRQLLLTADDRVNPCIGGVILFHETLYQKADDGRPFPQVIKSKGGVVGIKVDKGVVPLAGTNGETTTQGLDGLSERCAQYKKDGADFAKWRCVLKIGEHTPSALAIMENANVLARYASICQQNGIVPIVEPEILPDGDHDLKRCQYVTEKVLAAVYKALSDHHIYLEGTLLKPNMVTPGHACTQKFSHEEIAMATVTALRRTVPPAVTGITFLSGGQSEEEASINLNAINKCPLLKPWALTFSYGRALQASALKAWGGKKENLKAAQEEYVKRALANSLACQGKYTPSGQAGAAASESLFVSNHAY
# SMN1, sequence (Q16637 other isoform, or with tags, fused parts or gaps limits assumed): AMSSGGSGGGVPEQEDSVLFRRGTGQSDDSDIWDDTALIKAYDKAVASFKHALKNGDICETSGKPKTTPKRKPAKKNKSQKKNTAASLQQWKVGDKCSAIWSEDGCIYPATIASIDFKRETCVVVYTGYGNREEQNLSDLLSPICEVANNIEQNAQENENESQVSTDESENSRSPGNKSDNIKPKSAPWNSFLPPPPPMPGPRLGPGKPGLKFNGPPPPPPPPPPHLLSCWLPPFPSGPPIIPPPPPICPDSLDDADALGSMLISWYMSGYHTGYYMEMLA
# TXN, sequence (P10599 2-105 limits assumed): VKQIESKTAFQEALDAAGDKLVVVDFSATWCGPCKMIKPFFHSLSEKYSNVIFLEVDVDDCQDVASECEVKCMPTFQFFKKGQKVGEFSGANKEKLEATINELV
substance,measurement,setting,value
N-terminal FLAG tagged B3GNT2 (from UniProt Q9NY97 1-397) (enzyme),co-IP/MS count,PRR4,2
same,co-IP/MS count,RAB1B,0
same,co-IP/MS count,DPM1,4
same,co-IP/MS count,SLC25A3,4
same,co-IP/MS count,PSMA1,2
same,co-IP/MS count,TRIM28,4
same,co-IP/MS count,SLC25A1,5
same,co-IP/MS count,PSMA4,2
same,co-IP/MS count,SMN1,10
same,co-IP/MS count,CNP,5
same,co-IP/MS count,RPL29,4
same,co-IP/MS count,HSPH1,8
same,co-IP/MS count,CSPG4,2
same,co-IP/MS count,SEC16A,2
same,co-IP/MS count,HSPA5,70
same,co-IP/MS count,ALDOA,2
same,co-IP/MS count,RPL18A,3
same,co-IP/MS count,SERPINE2,4
same,co-IP/MS count,LRPPRC,2
same,co-IP/MS count,OS9,3
same,co-IP/MS count,SRSF7,2
same,co-IP/MS count,CALM2,0
IgG control (Millipore Sigma 12-371) (antibody),co-IP mass spectrometry count,ARG1,4
same,co-IP mass spectrometry count,RPL19,2
same,co-IP mass spectrometry count,SRSF3,4
same,co-IP mass spectrometry count,HSPB1,4
same,co-IP mass spectrometry count,HNRNPU,2
same,co-IP mass spectrometry count,ITGB3,0
same,co-IP mass spectrometry count,RPS13,2
same,co-IP mass spectrometry count,RPS8,7
same,co-IP mass spectrometry count,TXN,3
same,co-IP mass spectrometry count,PSMA7,0
same,co-IP mass spectrometry count,LIMA1,3
same,co-IP mass spectrometry count,RPL3,3
same,co-IP mass spectrometry count,NCCRP1,4
same,co-IP mass spectrometry count,MTCH2,0
same,co-IP mass spectrometry count,DDX20,0
same,co-IP mass spectrometry count,TMEM59,0
same,co-IP mass spectrometry count,SSRP1,0
same,co-IP mass spectrometry count,RPL22,0
